Reference: FireProtDB (doi:10.1016/j.bpc.2005.09.016)
Where “and” joins values, the source holds several entries; their conditions need not be identical. Equal values may be shown once.

Conditions: Aspergillus oryzae (strain ATCC 42149 / RIB 40), 25 °C, CD, Glycine hydrochloride 0.05 M, reversible: Yes, whole UniProt chain shown

B1: Guanyl-specific ribonuclease T1 wild type, P00651 (protein)
chain: MMYSKLLTLTTLLLPTALALPSLVERACDYTCGSNCYSSSDVSTAQAAGYQLHEDGETVGSNSYPHKYNNYEGFDFSVSSPYYEWPILSSGDVYSGGSPGADRVVFNENNQLAGVITHTGASGNNFVECT
Q: With B1 as the protein, how does the denaturant m value (pH 3, Urea) read?
A: 1.57 kcal/mol/M and 1.73 kcal/mol/M and 2.04 kcal/mol/M

Q: And the “denaturant midpoint (higher = more stable)” value (shortened to “denaturant midpoint”) (pH 3, Urea)?
A: 3.8 M and 3.2 M and 3.1 M

Q: And the unfolding free energy (pH 3, Urea)?
A: 6.01 kcal/mol and 5.54 kcal/mol and 6.36 kcal/mol

Q: What about the “denaturant midpoint” value (pH 5.5, GdnHCl) of the same protein?
A: 4.3 M and 3.7 M

Q: What about the unfolding free energy (pH 5.5, GdnHCl) of the same protein?
A: 9.29 kcal/mol and 9.48 kcal/mol and 9.37 kcal/mol

Q: And the “denaturant midpoint” value (pH 6, GdnHCl)?
A: 3.8 M and 3.7 M

Q: What about the unfolding free energy (pH 6, GdnHCl) of the same protein?
A: 10.2 kcal/mol
